The text below walks through data of patent US20090018074A1.

For orientation: Kd means the equilibrium constant for the complex coming apart. A low value points to tighter binding.

Test [1] deals with full length Bt-R1a cadherin expressed in Drosophila S2 cells (Manduca sexta). Description: 125I-Cry1Ab saturation binding on suspensions of S2 cells expressing full-length Bt-R1a; dissociation constant (Kcom).
Test [2] has as its target Cad7-12 truncated Bt-R1a cadherin expressed in S2 cells (Manduca sexta). Briefly: 125I-Cry1Ab saturation binding on suspensions of S2 cells expressing the fragment; dissociation constant (Kcom).
The target of test [3] is Cad11-12 truncated Bt-R1a cadherin expressed in S2 cells (Manduca sexta). Briefly: 125I-Cry1Ab saturation binding on S2 cell suspensions; reference Cad12.
Test [4] concerns the target full length Bt-R1a cadherin expressed in Drosophila S2 cells (Manduca sexta). Briefly: 125I-Cry1Ab saturation binding on suspensions of S2 cells expressing full-length Bt-R1a.
For test [5], the target named is Cad12 truncated Bt-R1a cadherin expressed in S2 cells (Manduca sexta). Briefly: 125I-Cry1Ab saturation binding on suspensions of S2 cells expressing the fragment.
The target of test [6] is Cad11-12 truncated Bt-R1a cadherin expressed in S2 cells (Manduca sexta). The test is described as above.
For test [7], the target named is Cad7-12 truncated Bt-R1a cadherin expressed in S2 cells (Manduca sexta). Described as above.

Consider Cry1Ab toxin (ligand), for which the values for the Kd in test [1] and in test [2] were 3.55 nM and 2.05 nM, respectively. This substance also yielded a fold concentration of binding sites against Cad12 in test [3] of 3 fold. In addition, the Bmax (concentration of receptors) (fmoles/mg protein) was 625 in test [4], 1410 in test [5], 3320 in test [6] and 506 in test [7].
